Assay results reported in patent publication US20170145069A1 (Novo Nordisk, published 2017).
*1 amine or outer side, *2 acyl side, *3 side chain or, on linkers, in order; H or OH if unused. Where no end group is shown, it is not given here. Side-chain parts run from the residue outwards. [ ]: non-standard residue; d: D form. The star is where a group is joined. Dodecanoyl(12-OPh(4-COOH)) = O=C(O)c1ccc(OCCCCCCCCCCCC(=O)*)cc1; Undecanoyl(11-OPh(4-COOH)) = O=C(O)c1ccc(OCCCCCCCCCCC(=O)*)cc1; Decanoyl(10-(4-HOOC-PhO)) = O=C(O)c1ccc(OCCCCCCCCCC(=O)*)cc1; γGlu = O=C(O)[C@H](CCC(=O)[*:2])N[*:1]; εLys = N[C@@H](CCCCN[*:1])C(=O)[*:2]; 13‑carboxytridecanoyl = C14 diacid; AEEA = NCCOCCOCC(=O)O; Aib = CC(C)(N)C(=O)O

Legend:
[1] = target: T1, human GLP-1 receptor (human, UniProt P43220 24-463); test: cell-based or functional assay
[2] = target: T1, human GLP-1 receptor; test: SPA, displacement of 125I-GLP-1(7-36)NH2, BHK membranes, 0.001% HSA
Description: Test compounds, membranes, SPA-particles and [¹²⁵I] ]-GLP-1(7-36)NH₂ were diluted in assay buffer. 50 ul (micro liter) buffer (“low albumin” experiment containing 0.001% HSA) was added to Optiplate, and 25 ul of test compounds were added. 5-10 μg membrane protein/sample was added (50 μl) corresponding to 0.1-0.2 mg protein/ml (to be preferably optimised for each membrane preparation). SPA-particles (Wheatgerm agglutinin SPA beads, Perkin Elmer, #RPNQ0001) were added in an amount of 0.5 mg/well (50 μl). The incubation was started with [¹²⁵I]-GLP-1]-(7-36)NH₂ (final concentration 0.06 nM corresponding to 49.880 DPM, 25 μl). The plates were sealed with PlateSealer and incubated for 120 minutes at 30° C. while shaking. The plates were centrifuged (1500 rpm, 10 min) and counted in Topcounter.
The IC₅₀ value was read from the curve as the concentration which displaces 50% of ¹²⁵I-GLP-1 from the receptor.

[3] = target: T1, human GLP-1 receptor; test: cell-based or functional assay; remark: listed apart in the source

| Binder | In vitro potency (AlphaScreen cAMP; membranes) EC50 [1] [nM] | IC50 [2] [nM] | In vitro potency (CRE-luciferase) low albumin EC50 [3] [nM] |
| --- | --- | --- | --- |
| HAEGTFTSDVSK([AEEA-AEEA-γGlu-Decanoyl(10-(4-HOOC-PhO))])YLEEQAAK([AEEA-AEEA-γGlu-Decanoyl(10-(4-HOOC-PhO))])EFIAWLVQGRG [Comparative compound of Example 5a: Compound of Example 38, Chem. 57, in WO 2012/062803] | 0.224 | 5.8 | 0.025 |
| H[Aib]EGTFTSDVSK([Gly-Ser-Ser-Gly-Ser-Ser-Gly-Ser-Ser-Gly-Ser-Ser-γGlu-Undecanoyl(11-OPh(4-COOH))])YLEGQAAK([Gly-Ser-Ser-Gly-Ser-Ser-Gly-Ser-Ser-Gly-Ser-Ser-γGlu-Undecanoyl(11-OPh(4-COOH))])EFIAWLVQGRG | 0.171 | 1.34 | 0.029 |
| HXEGTFTSDVSSYLEGQAAKEFIAHLVQGRGK (Aib at 8; eps-amino of Lys26 and of the added C-terminal Lys (position 38) each acylated with 10-(4-carboxyphenoxy)decanoyl-gGlu-Ser-Ser-Gly-Ser-Ser-Gly) | 0.381 | 12.8 |  |
| H[Aib]EGTFTSDVSK([Gly-Ser-Ser-Gly-Ser-Ser-γGlu-Dodecanoyl(12-OPh(4-COOH))])YLEGQAAK([Gly-Ser-Ser-Gly-Ser-Ser-γGlu-Dodecanoyl(12-OPh(4-COOH))])EFIAWLVQGRG | 0.314 | 0.84 | 0.0096 |
| H[Aib]EGTFTSDVSK([Gly-Ser-Ser-Gly-Ser-Ser-γGlu-Undecanoyl(11-OPh(4-COOH))])YLEGQAAK([Gly-Ser-Ser-Gly-Ser-Ser-γGlu-Undecanoyl(11-OPh(4-COOH))])EFIAWLVQGRG |  | 0.37 | 0.0056 |
| H[Aib]EGTFTSDVSK([Ala-Ser-Ser-Ala-Ser-Ser-γGlu-Undecanoyl(11-OPh(4-COOH))])YLEGQAAK([Ala-Ser-Ser-Ala-Ser-Ser-γGlu-Undecanoyl(11-OPh(4-COOH))])EFIAWLVQGRG | 0.183 | 0.5 | 0.015 |
| H[Aib]EGTFTSDVSK([AEEA-AEEA-γGlu-13‑carboxytridecanoyl])YLEEQAVREFIAK([AEEA-AEEA-γGlu-13‑carboxytridecanoyl])LVRGRG [Comparative compound of Example 6a: Compound of Example 74, Chem. 93, in WO 2012/062803] | 0.062 | 0.8 | 0.062 |
| H[Aib]EGTFTSDVSK([εLys-Ser-Ser-Ser-Ser-Ser-Ser-γGlu-Undecanoyl(11-OPh(4-COOH))])YLEGQAAK([εLys-Ser-Ser-Ser-Ser-Ser-Ser-γGlu-Undecanoyl(11-OPh(4-COOH))])EFIAWLVQGRG | 0.181 | 0.42 | 0.011 |
| H[Aib]EGTFTSDVSK([εLys-Gly-Ser-Ser-Gly-Ser-Ser-Gly-Ser-Ser-Gly-Ser-Ser-Gly-Ser-Ser-Gly-Ser-Ser-γGlu-Undecanoyl(11-OPh(4-COOH))])YLEGQAAK([εLys-Gly-Ser-Ser-Gly-Ser-Ser-Gly-Ser-Ser-Gly-Ser-Ser-Gly-Ser-Ser-Gly-Ser-Ser-γGlu-Undecanoyl(11-OPh(4-COOH))])EFIAWLVQGRG | 0.486 | 4.87 | 0.047 |
| H[Aib]EGTFTSDVSK([εLys-Gly-Ser-Ser-Gly-Ser-Ser-γGlu-Undecanoyl(11-OPh(4-COOH))])YLEGQAAK([εLys-Gly-Ser-Ser-Gly-Ser-Ser-γGlu-Undecanoyl(11-OPh(4-COOH))])EFIAWLVQGRG | 0.089 | 0.48 |  |
| H[Aib]EGTFTSDVSK([εLys-Gly-Ser-Ser-Gly-Ser-Ser-Gly-Ser-Ser-Gly-Ser-Ser-γGlu-Undecanoyl(11-OPh(4-COOH))])YLEGQAAK([εLys-Gly-Ser-Ser-Gly-Ser-Ser-Gly-Ser-Ser-Gly-Ser-Ser-γGlu-Undecanoyl(11-OPh(4-COOH))])EFIAWLVQGRG | 0.35 | 2.27 |  |
| H[Aib]EGTFTSDVSK([AEEA-AEEA-γGlu-Decanoyl(10-(4-HOOC-PhO))])YLEGQAAK([AEEA-AEEA-γGlu-Decanoyl(10-(4-HOOC-PhO))])EFIAWLVQGRG [Comparative compound of Example 9a: Compound of Example 92, Chem. 111, in WO 2012/062803] | 1.59 | 8.09 |  |
